IntAct's records for PubMed 29892012

B1: Genetic suppressor element 1 (Homo sapiens), Q14687 (parent)
chain: MKGMSHEPKSPSLGMLSTATRTTATVNPLTPSPLNGALVPSGSPATSSALSAQAAPSSSFAAALRKLAKQAEEPRGSSLSSESSPVSSPATNHSSPASTPKRVPMGPIIVPPGGHSVPSTPPVVTIAPTKTVNGVWRSESRQDAGSRSSSGGRERLIVEPPLPQEKAGGPAIPSHLLSTPYPFGLSPSSVVQDSRFPPLNLQRPVHHVVPPSTVTEDYLRSFRPYHTTDDLRMSSLPPLGLDPATAAAYYHPSYLAPHPFPHPAFRMDDSYCLSALRSPFYPIPTPGSLPPLHPSAMHLHLSGVRYPPELSHSSLAALHSERMSGLSAERLQMDEELRREREREREREREREADREREKEREREREKEREQEKEREREKERERELERQREQRAREKELLAAKALEPSFLPVAELHGLRGHATEERGKPSEQLTPTRAEKLKDAGLQAPKPVQHPLHPVPTPHHTVPSLISNHGIFSLPSSSAATALLIQRTNEEEKWLARQRRLRQEKEDRQSQVSEFRQQVLEQHLDMGRPPVPAEAEHRPESTTRPGPNRHEPGGRDPPQHFGGPPPLISPKPQLHAAPTALWNPVSLMDNTLETRRAESHSLHSHPAAFEPSRQAAVPLVKVERVFCPEKAEEGPRKREPAPLDKYQPPPPPPREGGSLEHQPFLPGPGPFLAELEKSTQTILGQQRASLPQAATFGELSGPLKPGSPYRPPVPRAPDPAYIYDEFLQQRRRLVSKLDLEERRRREAQEKGYYYDLDDSYDESDEEEVRAHLRCVAEQPPLKLDTSSEKLEFLQLFGLTTQQQKEELVAQKRRKRRRMLRERSPSPPTIQSKRQTPSPRLALSTRYSPDEMNNSPNFEEKKKFLTIFNLTHISAEKRKDKERLVEMLRAMKQKALSAAVADSLTNSPRDSPAVSLSEPATQQASLDVEKPVGVAASLSDIPKAAEPGKLEQVRPQELSRVQELAPASGEKARLSEAPGGKKSLSMLHYIRGAAPKDIPVPLSHSTNGKSKPWEPFVAEEFAHQFHESVLQSTQKALQKHKGSVAVLSAEQNHKVDTSVHYNIPELQSSSRAPPPQHNGQQEPPTARKGPPTQELDRDSEEEEEEDDEDGEDEEEVPKRKWQGIEAVFEAYQEHIEEQNLERQVLQTQCRRLEARHYSLSLTAEQLSHSVAELRSQKQKMVSERERLQAELDHLRKCLALPAMHWPRGYLKGYPR
partner: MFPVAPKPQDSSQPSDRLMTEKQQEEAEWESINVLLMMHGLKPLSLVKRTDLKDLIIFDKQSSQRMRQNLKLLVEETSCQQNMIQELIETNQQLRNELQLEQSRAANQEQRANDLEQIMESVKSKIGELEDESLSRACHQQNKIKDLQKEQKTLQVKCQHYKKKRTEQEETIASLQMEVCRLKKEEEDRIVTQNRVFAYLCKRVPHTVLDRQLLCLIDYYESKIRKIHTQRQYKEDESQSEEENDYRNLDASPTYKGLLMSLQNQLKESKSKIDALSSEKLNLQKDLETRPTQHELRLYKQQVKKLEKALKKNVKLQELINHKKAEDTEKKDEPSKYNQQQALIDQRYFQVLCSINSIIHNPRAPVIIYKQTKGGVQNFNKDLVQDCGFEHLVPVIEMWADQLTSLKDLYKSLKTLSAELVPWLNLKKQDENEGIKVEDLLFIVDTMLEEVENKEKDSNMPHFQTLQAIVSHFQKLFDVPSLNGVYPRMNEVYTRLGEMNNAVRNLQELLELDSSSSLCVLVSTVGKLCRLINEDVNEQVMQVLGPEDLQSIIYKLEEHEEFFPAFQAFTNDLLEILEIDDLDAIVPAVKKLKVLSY
B2: Enhancer of mRNA-decapping protein 3 (Homo sapiens), Q96F86 (parent)
chain: MATDWLGSIVSINCGDSLGVYQGRVSAVDQVSQTISLTRPFHNGVKCLVPEVTFRAGDITELKILEIPGPGDNQHFGDLHQTELGPSGAGCQVGINQNGTGKFVKKPASSSSAPQNIPKRTDVKSQDVAVSPQQQQCSKSYVDRHMESLSQSKSFRRRHNSWSSSSRHPNQATPKKSGLKNGQMKNKDDECFGDDIEEIPDTDFDFEGNLALFDKAAVFEEIDTYERRSGTRSRGIPNERPTRYRHDENILESEPIVYRRIIVPHNVSKEFCTDSGLVVPSISYELHKKLLSVAEKHGLTLERRLEMTGVCASQMALTLLGGPNRLNPKNVHQRPTVALLCGPHVKGAQGISCGRHLANHDVQVILFLPNFVKMLESITNELSLFSKTQGQQVSSLKDLPTSPVDLVINCLDCPENVFLRDQPWYKAAVAWANQNRAPVLSIDPPVHEVEQGIDAKWSLALGLPLPLGEHAGRIYLCDIGIPQQVFQEVGINYHSPFGCKFVIPLHSA
partner: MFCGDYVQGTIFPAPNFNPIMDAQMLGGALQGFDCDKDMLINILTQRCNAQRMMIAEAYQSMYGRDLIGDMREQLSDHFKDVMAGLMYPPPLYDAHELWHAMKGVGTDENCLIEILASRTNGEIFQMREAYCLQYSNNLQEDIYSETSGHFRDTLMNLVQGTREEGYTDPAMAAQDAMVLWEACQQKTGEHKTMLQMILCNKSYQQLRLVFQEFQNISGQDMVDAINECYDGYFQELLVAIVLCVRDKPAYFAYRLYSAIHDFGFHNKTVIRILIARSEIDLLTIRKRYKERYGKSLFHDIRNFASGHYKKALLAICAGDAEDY
B3: Kinetochore protein NDC80 homolog (Homo sapiens), O14777 (parent)
chain: MKRSSVSSGGAGRLSMQELRSQDVNKQGLYTPQTKEKPTFGKLSINKPTSERKVSLFGKRTSGHGSRNSQLGIFSSSEKIKDPRPLNDKAFIQQCIRQLCEFLTENGYAHNVSMKSLQAPSVKDFLKIFTFLYGFLCPSYELPDTKFEEEVPRIFKDLGYPFALSKSSMYTVGAPHTWPHIVAALVWLIDCIKIHTAMKESSPLFDDGQPWGEETEDGIMHNKLFLDYTIKCYESFMSGADSFDEMNAELQSKLKDLFNVDAFKLESLEAKNRALNEQIARLEQEREKEPNRLESLRKLKASLQGDVQKYQAYMSNLESHSAILDQKLNGLNEEIARVELECETIKQENTRLQNIIDNQKYSVADIERINHERNELQQTINKLTKDLEAEQQKLWNEELKYARGKEAIETQLAEYHKLARKLKLIPKGAENSKGYDFEIKFNPEAGANCLVKYRAQVYVPLKELLNETEEEINKALNKKMGLEDTLEQLNAMITESKRSVRTLKEEVQKLDDLYQQKIKEAEEEDEKCASELESLEKHKHLLESTVNQGLSEAMNELDAVQREYQLVVQTTTEERRKVGNNLQRLLEMVATHVGSVEKHLEEQIAKVDREYEECMSEDLSENIKEIRDKYEKKATLIKSSEE
partner: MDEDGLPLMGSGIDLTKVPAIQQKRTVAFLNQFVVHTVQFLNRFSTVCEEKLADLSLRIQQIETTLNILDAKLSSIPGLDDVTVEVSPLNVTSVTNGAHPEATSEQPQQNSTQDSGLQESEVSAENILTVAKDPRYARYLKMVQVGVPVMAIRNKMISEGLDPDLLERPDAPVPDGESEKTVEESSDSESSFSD
B4: Enhancer of mRNA-decapping protein 3 (Homo sapiens), Q96F86 (parent)
chain: B2 chain
partner: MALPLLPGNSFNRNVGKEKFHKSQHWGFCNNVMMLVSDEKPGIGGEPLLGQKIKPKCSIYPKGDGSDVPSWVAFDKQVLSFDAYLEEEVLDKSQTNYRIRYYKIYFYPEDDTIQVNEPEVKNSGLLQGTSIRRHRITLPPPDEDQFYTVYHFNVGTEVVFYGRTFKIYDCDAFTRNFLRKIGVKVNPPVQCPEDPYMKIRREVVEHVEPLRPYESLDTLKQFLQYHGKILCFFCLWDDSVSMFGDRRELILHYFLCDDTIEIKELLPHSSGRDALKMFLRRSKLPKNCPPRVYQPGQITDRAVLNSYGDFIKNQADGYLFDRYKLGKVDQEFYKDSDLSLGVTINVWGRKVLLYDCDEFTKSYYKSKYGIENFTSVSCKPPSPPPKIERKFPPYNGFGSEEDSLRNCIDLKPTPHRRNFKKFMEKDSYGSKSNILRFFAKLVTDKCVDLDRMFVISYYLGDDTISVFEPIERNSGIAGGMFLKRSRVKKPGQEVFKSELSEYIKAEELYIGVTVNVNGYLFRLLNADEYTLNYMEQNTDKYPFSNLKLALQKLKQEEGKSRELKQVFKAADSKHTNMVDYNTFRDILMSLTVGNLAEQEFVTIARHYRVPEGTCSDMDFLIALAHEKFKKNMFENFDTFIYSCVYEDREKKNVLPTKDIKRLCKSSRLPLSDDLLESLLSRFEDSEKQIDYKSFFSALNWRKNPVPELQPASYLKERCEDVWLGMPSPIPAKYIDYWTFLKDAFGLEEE
B5: Retinoic acid receptor alpha (Homo sapiens), P10276 (parent)
chain: MASNSSSCPTPGGGHLNGYPVPPYAFFFPPMLGGLSPPGALTTLQHQLPVSGYSTPSPATIETQSSSSEEIVPSPPSPPPLPRIYKPCFVCQDKSSGYHYGVSACEGCKGFFRRSIQKNMVYTCHRDKNCIINKVTRNRCQYCRLQKCFEVGMSKESVRNDRNKKKKEVPKPECSESYTLTPEVGELIEKVRKAHQETFPALCQLGKYTTNNSSEQRVSLDIDLWDKFSELSTKCIIKTVEFAKQLPGFTTLTIADQITLLKAACLDILILRICTRYTPEQDTMTFSDGLTLNRTQMHNAGFGPLTDLVFAFANQLLPLEMDDAETGLLSAICLICGDRQDLEQPDRVDMLQEPLLEALKVYVRKRRPSRPHMFPKMLMKITDLRSISAKGAERVITLKMEIPGSMPPLIQEMLENSEGLDTLSGQPGGGGRDGGGLAPPPGSCSPSLSPSSNRSSPATHSP
partner: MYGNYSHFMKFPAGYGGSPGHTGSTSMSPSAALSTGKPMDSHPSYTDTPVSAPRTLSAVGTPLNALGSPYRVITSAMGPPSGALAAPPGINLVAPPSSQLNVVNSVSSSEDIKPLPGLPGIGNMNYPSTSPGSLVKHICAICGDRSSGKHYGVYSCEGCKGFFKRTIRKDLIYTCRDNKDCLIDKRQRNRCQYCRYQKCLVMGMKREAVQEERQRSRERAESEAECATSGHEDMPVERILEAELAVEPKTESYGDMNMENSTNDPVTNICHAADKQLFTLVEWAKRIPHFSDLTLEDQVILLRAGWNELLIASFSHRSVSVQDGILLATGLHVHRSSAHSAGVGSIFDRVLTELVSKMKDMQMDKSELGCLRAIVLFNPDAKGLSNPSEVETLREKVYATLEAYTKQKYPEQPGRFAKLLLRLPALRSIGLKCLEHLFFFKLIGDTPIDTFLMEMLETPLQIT

Variants of: B1
Settings: with cep70_human CEP70, Q8NHQ1

| effect of a mutation on the interaction | Variant |
| --- | --- |
| with no effect | R503Q |

Variants of: B2
Settings: with anx10_human ANXA10, Q9UJ72

| effect of a mutation on the interaction | Variant |
| --- | --- |
| with no effect | F213L |

Variants of: B3
Settings: with wasc3_human WASHC3, Q9Y3C0

| effect of a mutation on the interaction | Variant |
| --- | --- |
| with no effect | K288E |

Variants of: B4
Settings: with efhc2_human EFHC2, Q5JST6

| effect of a mutation on the interaction | Variant |
| --- | --- |
| with no effect | F213L |

Variants of: B5
Settings: with rxrg_human RXRG

| effect of a mutation on the interaction | Variant |
| --- | --- |
| with no effect | R83H |
